Experiments:
purified protein [1] = substrate: Nc1ccn([C@H]2C[C@H](O)[C@@H](COP(=O)(O)OP(=O)(O)OP(=O)(O)O)O2)c(=O)n1; assay: purified protein; assay type: biochemical, Pseudomonas aeruginosa; conditions: opposite undamaged template dG, 13/20-mer primer/template DNA 100 nM, 200 nM DinB, 10 mM MgCl2, pH 7.5, 25 °C
purified protein [2] = substrate: Nc1ncnc2c1ncn2[C@H]1C[C@H](O)[C@@H](COP(=O)(O)OP(=O)(O)OP(=O)(O)O)O1; assay: purified protein; assay type: biochemical, Pseudomonas aeruginosa; conditions: opposite template 8-oxo-dG (lesion), 13/20 8-oxo-dG-mer DNA 100 nM, 200 nM DinB, 10 mM MgCl2, pH 7.5, 25 °C

B1: P. aeruginosa DinB (DNA Pol IV) (Pseudomonas aeruginosa PAO1) (protein)
chain: MRKIIHIDCDCFYAALEMRDDPSLRGKALAVGGSPDKRGVVATCSYEARAYGVRSAMAMRTALKLCPDLLVVRPRFDVYRAVSKQIHAIFRDYTDLIEPLSLDEAYLDVSASPHFAGSATRIAQDIRRRVAEELHITVSAGVAPNKFLAKIASDWRKPDGLFVITPEQVDGFVAELPVAKLHGVGKVTAERLARMGIRTCADLRQGSKLSLVREFGSFGERLWGLAHGIDERPVEVDSRRQSVSVECTFDRDLPDLAACLEELPTLLEELDGRLQRLDGSYRPDKPFVKLKFHDFTQTTVEQSGAGRDLESYRQLLGQAFARGNRPVRLIGVGVRLLDLQGAHEQLRLF
notes: C-terminally hexahistidine-tagged, recombinant, purified as described earlier
Km (purified protein [1]): 5.4 ± 2.3 µM
kcat (purified protein [1]): 0.12 ± 0.01 s⁻¹
kcat/Km (purified protein [1]): 22000 M⁻¹ s⁻¹
Km (purified protein [2]): 15 ± 5.0 µM
kcat (purified protein [2]): 0.066 ± 0.006 s⁻¹
kcat/Km (purified protein [2]): 4000 M⁻¹ s⁻¹

Reference: paper PMC3078926, “Epistatic Roles for Pseudomonas aeruginosa MutS and DinB (DNA Pol IV) in Coping with Reactive Oxygen Species-Induced DNA Damage” (PLoS ONE, 2011)
